The results in this text go back to patent US20050080013A1 (Pfizer, published 2005).

Sequences and labels used below:
T1: lecithin:cholesterol acyltransferase (LCAT), purified from human plasma (human, UniProt P04180 25-440)
T1 sequence (looked up): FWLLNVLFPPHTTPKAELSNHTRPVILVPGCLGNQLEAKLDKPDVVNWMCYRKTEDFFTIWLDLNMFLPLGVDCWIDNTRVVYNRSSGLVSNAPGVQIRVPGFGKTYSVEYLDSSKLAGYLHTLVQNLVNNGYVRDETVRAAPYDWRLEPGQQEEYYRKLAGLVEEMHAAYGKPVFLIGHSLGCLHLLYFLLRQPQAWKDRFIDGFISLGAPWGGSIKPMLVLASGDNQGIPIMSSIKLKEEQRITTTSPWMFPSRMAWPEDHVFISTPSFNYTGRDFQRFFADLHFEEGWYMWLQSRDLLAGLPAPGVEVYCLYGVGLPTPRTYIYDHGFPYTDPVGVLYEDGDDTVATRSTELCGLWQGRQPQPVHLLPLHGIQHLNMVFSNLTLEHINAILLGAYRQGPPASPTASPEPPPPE

B1: peptide 211 (peptide)
peptide: Ac-PVLDLFRELLEEL[Orn]Q[Orn]L[Orn]-NH2
SMILES: CC(=O)N1CCC[C@H]1C(=O)N[C@H](C(=O)N[C@@H](CC(C)C)C(=O)N[C@@H](CC(=O)O)C(=O)N[C@@H](CC(C)C)C(=O)N[C@@H](Cc1ccccc1)C(=O)N[C@@H](CCCNC(=N)N)C(=O)N[C@@H](CCC(=O)O)C(=O)N[C@@H](CC(C)C)C(=O)N[C@@H](CC(C)C)C(=O)N[C@@H](CCC(=O)O)C(=O)N[C@@H](CCC(=O)O)C(=O)N[C@@H](CC(C)C)C(=O)N[C@@H](CCCN)C(=O)N[C@@H](CCC(N)=O)C(=O)N[C@@H](CCCN)C(=O)N[C@@H](CC(C)C)C(=O)N[C@@H](CCCN)C(N)=O)C(C)C
B2: peptide 212 (peptide)
peptide: Ac-PVLDLF[Orn]ELLEEL[Orn]Q[Orn]LK-NH2
SMILES: CC(=O)N1CCC[C@H]1C(=O)N[C@H](C(=O)N[C@@H](CC(C)C)C(=O)N[C@@H](CC(=O)O)C(=O)N[C@@H](CC(C)C)C(=O)N[C@@H](Cc1ccccc1)C(=O)N[C@@H](CCCN)C(=O)N[C@@H](CCC(=O)O)C(=O)N[C@@H](CC(C)C)C(=O)N[C@@H](CC(C)C)C(=O)N[C@@H](CCC(=O)O)C(=O)N[C@@H](CCC(=O)O)C(=O)N[C@@H](CC(C)C)C(=O)N[C@@H](CCCN)C(=O)N[C@@H](CCC(N)=O)C(=O)N[C@@H](CCCN)C(=O)N[C@@H](CC(C)C)C(=O)N[C@@H](CCCCN)C(N)=O)C(C)C
B3: peptide 214 (peptide)
peptide: Ac-[dP]VLDLFRELLEELKQKLK-NH2
SMILES: CC(=O)N1CCC[C@@H]1C(=O)N[C@H](C(=O)N[C@@H](CC(C)C)C(=O)N[C@@H](CC(=O)O)C(=O)N[C@@H](CC(C)C)C(=O)N[C@@H](Cc1ccccc1)C(=O)N[C@@H](CCCNC(=N)N)C(=O)N[C@@H](CCC(=O)O)C(=O)N[C@@H](CC(C)C)C(=O)N[C@@H](CC(C)C)C(=O)N[C@@H](CCC(=O)O)C(=O)N[C@@H](CCC(=O)O)C(=O)N[C@@H](CC(C)C)C(=O)N[C@@H](CCCCN)C(=O)N[C@@H](CCC(N)=O)C(=O)N[C@@H](CCCCN)C(=O)N[C@@H](CC(C)C)C(=O)N[C@@H](CCCCN)C(N)=O)C(C)C

Non-standard residues stand in square brackets, D forms with d. No end group written: not given here. Orn = NCCC[C@H](N)C(=O)O

The assay concerns the target T1, lecithin:cholesterol acyltransferase …. Put plainly: cell-based or functional assay.
Turning to PVLELFDNLLDKLLDALQKKLR [peptide 180], the “ACTIVITY (%) LCAT” value worked out at 8%.

Consider Ac-AVLDLFRELLEELKQKLK-NH2 [peptide 203], for which the “ACTIVITY (%) LCAT” value is 66%.

Consider [dP]VLDLFRELLNEGLEALKQKLK [peptide 19], for which the “ACTIVITY (%) LCAT” value was 58%.

As for Ac-PALELFKDLLEELRQKLR-NH2 [peptide 202], the “ACTIVITY (%) LCAT” value is 70%.

For Ac-PVLDLFRELLEEWKQKLK-NH2 [peptide 215], the “ACTIVITY (%) LCAT” value amounted to 38%.

Turning to Ac-PVLDLFRELLNELLQKLK-NH2 [peptide 218], the “ACTIVITY (%) LCAT” value came to 29%.

Regarding Ac-PLLDLFKELLEELKQKLK-NH2 [peptide 201], the “ACTIVITY (%) LCAT” value amounted to 74%.

As for [dP][dV][dL][dE][dL][dF][dE][dN][dL][dL][dE][dR][dL][dL][dD][dA][dL][dQ][dK][dK][dL][dK] [peptide 174], the “ACTIVITY (%) LCAT” value worked out at 13%.

Take B1: the “ACTIVITY (%) LCAT” value came out at 45%.

PVLELFKELLQELLEALKQKLK [peptide 17]: the “ACTIVITY (%) LCAT” value is 59%.

On to Ac-PVLDFFRELLEELKQKLK-NH2 [peptide 204], for which the “ACTIVITY (%) LCAT” value stood at 63%.

Take PVLELFDNLLEKLLEALQKKLR [peptide 178]: the “ACTIVITY (%) LCAT” value is 9%.

As to PVLDLLRELLNELLEALKQKLK [peptide 16], the “ACTIVITY (%) LCAT” value was found to be 59%.

For the molecule PVLELFENLLERLLELLNKKLK [peptide 175], the “ACTIVITY (%) LCAT” value turned out to be 13%.

As to B2, the “ACTIVITY (%) LCAT” value was 43%.

For PVLDLFRELLEELKQKLK [peptide 210], the “ACTIVITY (%) LCAT” value turned out to be 46%.

As to PLLELFENLLEKLLDALQKKLK [peptide 183], the “ACTIVITY (%) LCAT” value was 6%.

On to Ac-PVLDLFRELWEELKQKLK-NH2 [peptide 199], for which the “ACTIVITY (%) LCAT” value was found to be 76%.

Take GVLDLFRELLNELLEALKQKLK [peptide 18]: the “ACTIVITY (%) LCAT” value came out at 58%.

PVLELFDNLLERLLDALQKKLK [peptide 179]: the “ACTIVITY (%) LCAT” value was determined as 8%.

With Ac-PVLELLKELLEELKQKLK-NH2 [peptide 207], the “ACTIVITY (%) LCAT” value came to 50%.

For the molecule Ac-PVLELFKELLEELKQKLK-NH2 [peptide 195], the “ACTIVITY (%) LCAT” value turned out to be 87%.

For the molecule Ac-PALELFKDLLEELRQRLK-NH2 [peptide 208], the “ACTIVITY (%) LCAT” value worked out at 48%.

Take PVLELFENLLERLLDALQ[Orn][Orn]L[Orn] [peptide 185]: the “ACTIVITY (%) LCAT” value amounted to 3%.

With Ac-PVLDLLRELLEELKQKLK-NH2 [peptide 191], the “ACTIVITY (%) LCAT” value turned out to be 100%.

As to B3, the “ACTIVITY (%) LCAT” value was determined as 39%.

Regarding PVLELWENLLERLLDALQKKLK [peptide 176], the “ACTIVITY (%) LCAT” value is 11%.

Take Ac-PVLDLFRELLEELKQKLK-NH2 [peptide 193]: the “ACTIVITY (%) LCAT” value stood at 96%.

Take PVLELFKELLEELKQKLK [peptide 216]: the “ACTIVITY (%) LCAT” value turned out to be 35%.

Consider PVLDLFRELLELLKQKLK [peptide 217], for which the “ACTIVITY (%) LCAT” value was found to be 30%.

For Ac-PVLDLFRELLEELKNKLK-NH2 [peptide 196], the “ACTIVITY (%) LCAT” value was found to be 81%.

As to PVLELFENLLERWLDALQKKLK [peptide 181], the “ACTIVITY (%) LCAT” value was found to be 8%.

Turning to PVLDLFDNLLDRLLDLLNKKLK [peptide 173], the “ACTIVITY (%) LCAT” value stood at 15%.

As for Ac-PVLDLFKELLEELKQKLK-NH2 [peptide 192], the “ACTIVITY (%) LCAT” value was 100%.

Consider GVLELFLNLLERLLDALQKKLK [peptide 177], for which the “ACTIVITY (%) LCAT” value came to 10%.

As to Ac-NVLDLFRELLEELKQKLK-NH2 [peptide 200], the “ACTIVITY (%) LCAT” value worked out at 75%.

Consider Ac-PVLDLFREWLEELKQKLK-NH2 [peptide 205], for which the “ACTIVITY (%) LCAT” value was 60%.

Turning to PVLDLFRELLNELLQKLK [peptide 209], the “ACTIVITY (%) LCAT” value came out at 47%.

For the molecule Ac-PALELFKDLLEEFRQRLK-NH2 [peptide 213], the “ACTIVITY (%) LCAT” value came to 42%.

For the molecule PVLDLFRELLNELWQKLK [peptide 219], the “ACTIVITY (%) LCAT” value was 24%.

Turning to Ac-PLLELLKELLEELKQKLK-NH2 [peptide 206], the “ACTIVITY (%) LCAT” value is 57%.

Take PVLELFLNLLERLLDAWQKKLK [peptide 184]: the “ACTIVITY (%) LCAT” value worked out at 4%.

Regarding Ac-GVLDLFRELLEELKQKLK-NH2 [peptide 198], the “ACTIVITY (%) LCAT” value stood at 80%.

On to PVLELFENLLEKLLEALQKKLK [peptide 182], for which the “ACTIVITY (%) LCAT” value is 7%.

Turning to Ac-PVLELFRELLEELKQKLK-NH2 [peptide 194], the “ACTIVITY (%) LCAT” value stood at 88%.

Ac-PLLDLFRELLEELKQKLK-NH2 [peptide 197]: the “ACTIVITY (%) LCAT” value was found to be 81%.
